From IntAct's records for PubMed 32172343

B1: Phospholipid-transporting ATPase VB (Homo sapiens), O94823-1 (parent)
chain: MALSVDSSWHRWQWRVRDGFPHCPSETTPLLSPEKGRQSYNLTQQRVVFPNNSIFHQDWEEVSRRYPGNRTCTTKYTLFTFLPRNLFEQFHRWANLYFLFLVILNWMPSMEVFHREITMLPLAIVLFVIMIKDGMEDFKRHRFDKAINCSNIRIYERKEQTYVQKCWKDVRVGDFIQMKCNEIVPADILLLFSSDPNGICHLETASLDGETNLKQRCVVKGFSQQEVQFEPELFHNTIVCEKPNNHLNKFKGYMEHPDQTRTGFGCESLLLRGCTIRNTEMAVGIVIYAGHETKAMLNNSGPRYKRSKIERRMNIDIFFCIGILILMCLIGAVGHSIWNGTFEEHPPFDVPDANGSFLPSALGGFYMFLTMIILLQVLIPISLYVSIELVKLGQVFFLSNDLDLYDEETDLSIQCRALNIAEDLGQIQYIFSDKTGTLTENKMVFRRCTIMGSEYSHQENAKRLETPKELDSDGEEWTQYQCLSFSARWAQDPATMRSQKGAQPLRRSQSARVPIQGHYRQRSMGHRESSQPPVAFSSSIEKDVTPDKNLLTKVRDAALWLETLSDSRPAKASLSTTSSIADFFLALTICNSVMVSTTTEPRQRVTIKPSSKALGTSLEKIQQLFQKLKLLSLSQSFSSTAPSDTDLGESLGANVATTDSDERDDASVCSGGDSTDDGGYRSSMWDQGDILESGSGTSLEEALEAPATDLARPEFCYEAESPDEAALVHAAHAYSFTLVSRTPEQVTVRLPQGTCLTFSLLCTLGFDSVRKRMSVVVRHPLTGEIVVYTKGADSVIMDLLEDPACVPDINMEKKLRKIRARTQKHLDLYARDGLRTLCIAKKVVSEEDFRRWASFRREAEASLDNRDELLMETAQHLENQLTLLGATGIEDRLQEGVPDTIATLREAGIQLWVLTGDKQETAVNIAHSCRLLNQTDTVYTINTENQETCESILNCALEELKQFRELQKPDRKLFGFRLPSKTPSITSEAVVPEAGLVIDGKTLNAIFQGKLEKKFLELTQYCRSVLCCRSTPLQKSMIVKLVRDKLRVMTLSIGDGANDVSMIQAADIGIGISGQEGMQAVMSSDFAITRFKHLKKLLLVHGHWCYSRLARMVVYYLYKNVCYVNLLFWYQFFCGFSSSTMIDYWQMIFFNLFFTSLPPLVFGVLDKDISAETLLALPELYKSGQNSECYNLSTFWISMVDAFYQSLICFFIPYLAYKGSDIDVFTFGTPINTISLTTILLHQAMEMKTWTIFHGVVLLGSFLMYFLVSLLYNATCVICNSPTNPYWVMEGQLSNPTFYLVCFLTPVVALLPRYFFLSLQGTCGKSLISKAQKIDKLPPDKRNLEIQSWRSRQRPAPVPEVARPTHHPVSSITGQDFSASTPKSSNPPKRKHVEESVLHEQRCGTECMRDDSCSGDSSAQLSSGEHLLGPNRIMAYSRGQTDMCRCSKRSSHRRSQSSLTI
partner: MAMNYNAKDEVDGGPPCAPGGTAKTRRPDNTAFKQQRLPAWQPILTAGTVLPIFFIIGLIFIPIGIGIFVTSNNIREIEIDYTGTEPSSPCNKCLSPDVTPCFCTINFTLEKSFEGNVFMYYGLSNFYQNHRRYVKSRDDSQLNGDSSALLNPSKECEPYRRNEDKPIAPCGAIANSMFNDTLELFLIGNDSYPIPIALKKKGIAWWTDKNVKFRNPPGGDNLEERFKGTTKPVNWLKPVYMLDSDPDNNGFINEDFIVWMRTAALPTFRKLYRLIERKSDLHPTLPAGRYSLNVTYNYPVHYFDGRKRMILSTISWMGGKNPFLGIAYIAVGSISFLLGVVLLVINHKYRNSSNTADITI

Variants of: B1
Settings: with TMEM30A

Effect of a mutation on the interaction, with no effect:
I1038T
E993A
V48L
E210A
G671R;N865K
